{"source": "patent US20260258113A1", "about": "“BETA GLOBIN MIMETIC PEPTIDES AND THEIR USE” (THE UNITED STATES OF AMERICA, AS REPRESENTED BY THE …, priority 2022, published 2026)", "target": "endothelial nitric oxide synthase (eNOS), endogenous, in human resistance arteries (human) (UniProt P29474)", "sequence (P29474 2-1203 limits assumed)": "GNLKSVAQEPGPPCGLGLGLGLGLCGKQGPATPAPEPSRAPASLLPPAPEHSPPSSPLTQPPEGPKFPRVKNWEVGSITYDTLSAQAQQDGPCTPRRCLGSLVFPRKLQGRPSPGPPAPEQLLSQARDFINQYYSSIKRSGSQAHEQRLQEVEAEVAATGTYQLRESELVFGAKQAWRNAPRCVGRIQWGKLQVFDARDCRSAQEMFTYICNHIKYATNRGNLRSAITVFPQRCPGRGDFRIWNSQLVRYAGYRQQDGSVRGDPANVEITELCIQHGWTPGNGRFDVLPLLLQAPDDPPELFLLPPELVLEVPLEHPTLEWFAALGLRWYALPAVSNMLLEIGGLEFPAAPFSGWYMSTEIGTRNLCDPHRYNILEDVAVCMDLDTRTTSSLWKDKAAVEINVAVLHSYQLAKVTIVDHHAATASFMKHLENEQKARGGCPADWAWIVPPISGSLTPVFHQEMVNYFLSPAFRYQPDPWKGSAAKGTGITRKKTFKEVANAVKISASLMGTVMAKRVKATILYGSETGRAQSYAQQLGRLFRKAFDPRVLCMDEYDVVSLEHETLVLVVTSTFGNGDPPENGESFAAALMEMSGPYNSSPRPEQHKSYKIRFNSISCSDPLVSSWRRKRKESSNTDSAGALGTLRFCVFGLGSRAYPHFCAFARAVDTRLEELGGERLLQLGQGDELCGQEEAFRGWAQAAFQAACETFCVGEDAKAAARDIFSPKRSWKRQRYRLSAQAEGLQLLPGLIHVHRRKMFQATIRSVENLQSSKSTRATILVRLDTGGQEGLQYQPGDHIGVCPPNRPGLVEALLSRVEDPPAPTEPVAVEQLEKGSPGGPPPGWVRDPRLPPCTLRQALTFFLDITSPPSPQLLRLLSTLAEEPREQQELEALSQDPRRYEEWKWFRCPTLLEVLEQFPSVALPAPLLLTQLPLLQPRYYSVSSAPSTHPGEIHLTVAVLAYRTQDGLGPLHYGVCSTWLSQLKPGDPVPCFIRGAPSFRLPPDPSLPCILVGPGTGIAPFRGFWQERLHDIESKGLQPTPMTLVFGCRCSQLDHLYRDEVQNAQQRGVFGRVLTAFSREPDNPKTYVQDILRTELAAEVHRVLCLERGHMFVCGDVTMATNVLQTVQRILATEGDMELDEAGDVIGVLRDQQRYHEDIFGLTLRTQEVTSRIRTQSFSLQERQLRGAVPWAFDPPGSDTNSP", "experiment": "cell-based or functional assay"}
{"substance": "alpha globin mimetic peptide HbαX with N-terminal HIV-tat tag", "values": [{"measurement": "Bottom (4-PL minimum of phenylephrine-induced constriction, % of baseline diameter), PE + Mimetic + LNAME, human omental arteries, pressure myography (% of baseline diameter)", "value": 41.9}, {"measurement": "Bottom (4-PL minimum of phenylephrine-induced constriction, % of baseline diameter), PE + Mimetic, human omental arteries, pressure myography, peptide 5 µmol/L (% of baseline diameter)", "value": 64.6}]}
